Measurements published in paper PMC2886031.
Like-named read-outs stand apart in the source and are kept apart here.

T1: PacI (R.PacI) restriction endonuclease (Pseudomonas alcaligenes, UniProt D5MNX7 1-142)
T1 sequence: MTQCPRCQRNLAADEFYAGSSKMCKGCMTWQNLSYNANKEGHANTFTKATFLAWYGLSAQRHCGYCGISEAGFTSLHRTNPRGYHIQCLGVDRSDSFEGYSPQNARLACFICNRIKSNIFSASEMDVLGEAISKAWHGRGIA


Key:
[1] = target: T1, PacI (R.PacI) restriction endonuclease; test: X-ray crystallography
[2] = target: T1, PacI (R.PacI) restriction endonuclease; test: X-ray crystallography; remark: listed apart in the source

| Binder | binding result [1] | binding result [2] |
| --- | --- | --- |
| 18 bp PacI cognate duplex (uncleaved) (dsDNA) DNA 1: GAGGCTTAATTAAGCCGC DNA 2: GCGGCTTAATTAAGCCTC | binds |  |
| 18 bp PacI cognate duplex, cleaved product (dsDNA, 5' phosphate at the cleaved ends) DNA 1: GAGGCTTAAT DNA 2: TAAGCCGC DNA 3: GCGGCTTAAT DNA 4: TAAGCCTC |  | binds |
